Test results taken from the supplement of paper PMC12764529.
± gives the half width of the 95% confidence interval.

Assay: folding stability dG unfold from chymotrypsin proteolysis; higher = more stable
In short: (§1)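 Mini-proteins designed to be under 80 residues and free of cysteine were carried in a PA-tagged cDNA display construct and digested with trypsin and with chymotrypsin. Each protease was applied at 11 threefold-diluted concentrations, alongside a no-protease condition, before sequencing. K50 came from Bayesian fitting of the sequencing counts, and unfolding free energy was obtained by comparing it with a sequence-predicted unfolded-state K50 and a shared folded-state K50, for each protease separately or for both together. Designs were retained only if their AlphaFold2 dimer inter-PAE exceeded 15.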

Sequence | folding stability dG unfold [kcal/mol]
SAGGSAGGSAGGSLELTFLLEDGTLAKVRIELNEDGELSISVELFELPAPEPVEVRFYPESAGGSAGGSAGG [r7_79_TrROS_Hall] | 2.8 ± 0.084
SAGGSAGGKPEVKITLVIEVETEEELKALAEELAALLGAEVEVRVERREDGRLLVTVTITVPAESAGGSAGG [r6_719_TrROS_Hall] | 2.77 ± 0.12
SAGGSAMEIDIDPEKNEIRIYNPWNGQPHPFTIESIEPIDPDNKYFKFKIKYPDTGKEMPFMVQIDSAGGSA [r15_209_TrROS] | 1.4 ± 0.15
SAGKMVKITITGPADKIKELLKKLFPNAEVEVKKVNGKLVFYFKPGEEVIEIEITDKDGNKLTIKIEKVSAG [r5_123_TrROS_Hall] | 3.74 ± 0.087
SAGGSSSSMVVVTLTFPPDVSPEEVIEKIAATPGVGAQPISYDPATGTFTIRVGSTDPKAVEEVLGSAGGSA [r2_305_JUSTAS] | 0.562 ± 0.17
SAGGSAGGSAGGMALIKLPNGEVQPVKIKAIDPDGNILVEPENSEWQTFSFDGLEIIPLPSAGGSAGGSAGG [r7_823_TrMRF] | 0.955 ± 0.16
SEALEKAAEAGVKTIYVYVKPGDLEEIKRLKALDVKIVLYATEEIPPEAFEALPGVKVEKVEWISPEELPSA [r9_671_TrMRF] | 2.08 ± 0.052
SALRPDIPFDAVEKVVIPARHPLLGGVVEAGVYRLKDSDAVLVVVTFPDGSKLVFLVRPDDVLDVLDAISAG [r14_240_TrMRF] | 2.969 ± 0.01
SAGKKKKFKIVSVEVEVKEVNGKLVIKMKVKDKKTGKTYEITMTLKVVDKKTKKTYTKTLKVTIKLPKSAGG [r19_129_TrROS_Hall] | 4.44 ± 0.16
SAGGSAGGSAGGKPKKVILIEADTLEEALAAAEALAPPGAKVTVTLVERDGKLYLLVTVDSAGGSAGGSAGG [r7_877_TrROS_Hall] | 3.75 ± 0.046
SAGGSAPGWYPITYEFEDNNKEIKIEVYYPKEDPMVGVDIEDPDGKVIFTIWFPADNAEKALKEILSAGGSA [r15_940_TrROS] | 1.49 ± 0.071
SAGGSKKTIVIPVPPGMSVEQIAAELKAKLEELFPDLKVEVVEVKPDGYVKIKIDGKLILIKFPKPSAGGSA [r2_102_TrROS_Hall] | 3.18 ± 0.042
SAGGSAGGSMKLPPELKGKKIRIRVRNKNGETVEAEATVLEDGTIEIKIEGLSEEEITEIEIESAGGSAGGS [r12_477_TrROS_Hall] | 2.21 ± 0.035
SAGGSAGGSAGKIRDPNGNPFQIKDVEVEPPGPGDPYISIEYPDNGEEFTLPPEDAEDLFSAGGSAGGSAGG [r17_517_TrROS] | 2.13 ± 0.052
SAGGEELARRLAEELRELGLEVEVVDVDLEEGKITIRVRPAPPPPPVTERRTRRRPDGREVTEERVLSAGGS [r8_318_TrROS_Hall] | 0.0369 ± 0.15
SAGGNAKEIASYLADWFQERFPPNMKVKVSVTVTPDGIVVRIRMPGGWQFEITIKDGKLQEIEWTPYSAGGS [r8_287_TrROS] | 2.874 ± 0.026

Assay: folding stability dG unfold (combined trypsin and chymotrypsin); higher = more stable
In short: as §1

Sequence | folding stability dG unfold [kcal/mol]
SAGGMYVEVVIDNPDPDISPEELAEEVARELAPDPFEIKPVKIEPELIGGIPKVTILFEVDDPEAVEESAGG [r13_979_TrMRF] | 0.763 ± 0.056
KIEIKVHPDGTLLIKAPLELIDLLIKLLKEKGYDAKILKIDPENGYVLIPVKPKPPPIPKPTPEELLKALFS [r1_78_TrMRF] | 3.35 ± 0.2
SAGGKTLVITVEAPPEDWDKILELAREALELGGDVVVVAPFPDGLTVTVRAEKPLGKIVEVTVAPDDASAGG [r13_873_TrMRF] | 1.15 ± 0.095
SAGGSAGGSAGGMRLVRITTEDGRTITAPVGETITITRPDGSKVKITRVEVFELPPEDLSAGGSAGGSAGGS [r10_20_TrROS_Hall] | 1.23 ± 0.041
SAGMKITVVELDGKSPEELSEEELKKLAEELLKELFPDVKKVKKVTVKVERLPDGRLVLVEVEIEVEEPSAG [r5_526_TrROS_Hall] | 1.79 ± 0.13
SAGGSAGGRIEVDPEGATIKYEHNPNMMQIEIKYPGKKVQIMIPPDFMKQNPDMPIKDLVEWILSAGGSAGG [r6_369_TrROS] | 1.11 ± 0.23
SAMVSPEEAAKLIAEKIREEHPDPNIVVPVKVEYDPETNTTTITVTVKYPDDPSTETFTYTLAPDDVLKSAG [r14_849_JUSTAS] | 1.9 ± 0.082
SAGGMYEIVDLLSVEPDPETGALTRTFLLRDPDSDRFLVAEVRIDPENPDRVEIRLYDEDGNLIAEFPSAGG [r13_658_TrMRF] | 3.93 ± 0.045
SAGGSPVVLTKSPDGLLYVVTLTDPANSLDRVKAKVTAYDPNKPVPLGELTIELDPKTGKAVSALSSAGGSA [r2_324_JUSTAS] | 0.21 ± 0.093
SAGGDPGWVRVTAEIELDGKNLKIEWWYMPNGNYYYNIEFPNGKEIEIMIPMEPGDVEEFAEYIAKKLSAGG [r13_296_TrROS] | 2.66 ± 0.11
SAGGMKSETIPLTTPEGVPFEVTITTENGKVTVTITPLDPSAPEEVVEAVRAAVEARAAAAGKTVTLVSAGG [r13_774_JUSTAS] | 1.42 ± 0.07
SAGGWYIRIKEIERNNDGVNIDIQIPDPDDPEFFENIAENLAQKLGMPKENIKIRIEPTPMPPDPEEPSAGG [r13_430_TrROS] | 0.247 ± 0.23
MKYTLTLTDPTTPTTSTLTVPNDPEKALALLREAKAANPNLTATLTGVTSEEIVEAAKKAGLKDIKPKTAAS [r1_114_JUSTAS] | 0.316 ± 0.27
SAGGSAGGSAGGSMLVEKKTFKDPKTGKTYIEIVIKDENGNLLSVKILSTEDPEKIEKLLSAGGSAGGSAGG [r7_484_JUSTAS] | 2.37 ± 0.15
SAGSIPEEIAKELGLPDLKVLKVETKPLPNGPLNIKIIELELPGGFKIKVTVVEEPEKIIIKTEPVPLSAGG [r19_392_JUSTAS] | 0.968 ± 0.27
SAGGSAGGSAGGSLELTFLLEDGTLAKVRIELNEDGELSISVELFELPAPEPVEVRFYPESAGGSAGGSAGG [r7_79_TrROS_Hall] | 2.42 ± 0.18

Sequence | folding stability dG unfold [kcal/mol]
SAGGSAGGKPEVKITLVIEVETEEELKALAEELAALLGAEVEVRVERREDGRLLVTVTITVPAESAGGSAGG [r6_719_TrROS_Hall] | 2.97 ± 0.096
SAGGSAMEIDIDPEKNEIRIYNPWNGQPHPFTIESIEPIDPDNKYFKFKIKYPDTGKEMPFMVQIDSAGGSA [r15_209_TrROS] | 1.08 ± 0.12
SAGKMVKITITGPADKIKELLKKLFPNAEVEVKKVNGKLVFYFKPGEEVIEIEITDKDGNKLTIKIEKVSAG [r5_123_TrROS_Hall] | 3.48 ± 0.17
SAGGSSSSMVVVTLTFPPDVSPEEVIEKIAATPGVGAQPISYDPATGTFTIRVGSTDPKAVEEVLGSAGGSA [r2_305_JUSTAS] | 0.748 ± 0.074
SAGGSAGGSAGGMALIKLPNGEVQPVKIKAIDPDGNILVEPENSEWQTFSFDGLEIIPLPSAGGSAGGSAGG [r7_823_TrMRF] | 0.886 ± 0.16
SEALEKAAEAGVKTIYVYVKPGDLEEIKRLKALDVKIVLYATEEIPPEAFEALPGVKVEKVEWISPEELPSA [r9_671_TrMRF] | 1.65 ± 0.1
SALRPDIPFDAVEKVVIPARHPLLGGVVEAGVYRLKDSDAVLVVVTFPDGSKLVFLVRPDDVLDVLDAISAG [r14_240_TrMRF] | 2.75 ± 0.045
SAGKKKKFKIVSVEVEVKEVNGKLVIKMKVKDKKTGKTYEITMTLKVVDKKTKKTYTKTLKVTIKLPKSAGG [r19_129_TrROS_Hall] | 4.04 ± 0.4
SAGGSAGGSAGGKPKKVILIEADTLEEALAAAEALAPPGAKVTVTLVERDGKLYLLVTVDSAGGSAGGSAGG [r7_877_TrROS_Hall] | 3.351 ± 0.028
SAGGSAPGWYPITYEFEDNNKEIKIEVYYPKEDPMVGVDIEDPDGKVIFTIWFPADNAEKALKEILSAGGSA [r15_940_TrROS] | 1.39 ± 0.092
SAGGSKKTIVIPVPPGMSVEQIAAELKAKLEELFPDLKVEVVEVKPDGYVKIKIDGKLILIKFPKPSAGGSA [r2_102_TrROS_Hall] | 2.77 ± 0.063
SAGGSAGGSMKLPPELKGKKIRIRVRNKNGETVEAEATVLEDGTIEIKIEGLSEEEITEIEIESAGGSAGGS [r12_477_TrROS_Hall] | 2.3 ± 0.076
SAGGSAGGSAGKIRDPNGNPFQIKDVEVEPPGPGDPYISIEYPDNGEEFTLPPEDAEDLFSAGGSAGGSAGG [r17_517_TrROS] | 1.64 ± 0.27
SAGGEELARRLAEELRELGLEVEVVDVDLEEGKITIRVRPAPPPPPVTERRTRRRPDGREVTEERVLSAGGS [r8_318_TrROS_Hall] | 0.214 ± 0.16
SAGGNAKEIASYLADWFQERFPPNMKVKVSVTVTPDGIVVRIRMPGGWQFEITIKDGKLQEIEWTPYSAGGS [r8_287_TrROS] | 2.79 ± 0.067
